Article PMC2965767, “Identification and Genome-Wide Prediction of DNA Binding Specificities for the ApiAP2 Family of Regulators from the Malaria Parasite”
Changes are numbered by the printed parent chain.

B1: No motif (dsDNA)
DNA 1: AATATTATAATAGTCGTAGCCATCAATAAAAAAAAATGGTAATATAGATTTTCGTTTATATT
DNA 2: AATATAAACGAAAATCTATATTACCATTTTTTTTTATTGATGGCTACGACTATTATAATATT
B2: PFD0985w_D2-1 (motif rank) (dsDNA)
DNA 1: AATATTATAATAGTCGTAGCCATCAATGTGTAACACATGGTAATATAGATTTTCGTTTATATT
DNA 2: AATATAAACGAAAATCTATATTACCATGTGTTACACATTGATGGCTACGACTATTATAATATT
B3: PFD0985w_D2-2 (motif rank) (dsDNA)
DNA 1: B2 DNA 1 with G28C, T29C, G30A, T31C, A33C, C34A, A35C
DNA 2: B2 DNA 2 with T29G, G30T, T31G, A33G, C34T, A35G, C36G
B4: msp10 (dsDNA)
DNA 1: TCAACAATTATTATATAATTAATTAGAAGTGCATTAGGTAACAACTGTCGAATAAATATAT
DNA 2: ATATATTTATTCGACAGTTGTTACCTAATGCACTTCTAATTAATTATATAATAATTGTTGA
B5: rhopH3 (dsDNA)
DNA 1: ATTAATTTAATATGTACGCAAGGTGCACACTGGTGCATTAAAAAAAAAATATATATTAAT
DNA 2: ATTAATATATATTTTTTTTTTAATGCACCAGTGTGCACCTTGCGTACATATTAAATTAAT
B6: msp1 (dsDNA)
DNA 1: AAATTGTGTAAATTCATATTCGATAAAGTGCATTAATTTTATTTATCAATTGTAAACATA
DNA 2: TATGTTTACAATTGATAAATAAAATTAATGCACTTTATCGAATATGAATTTACACAATTT

These molecules were tested against T1, PF14_0633 D1 (PF3D7_1466400, AP2 domain transcription factor AP2-EXP) (Plasmodium falciparum) (UniProt Q8IKH2) (assay: not given). Conditions: PBM; highest protein concentration obtained; buffer not given; scale: PBM E-score of the seed 8-mer.
T1 sequence: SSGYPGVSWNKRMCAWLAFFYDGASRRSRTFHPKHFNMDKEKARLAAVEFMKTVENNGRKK

| Molecule | binding signal |
| --- | --- |
| GCATGC (double strand) [PF14_0633 primary motif] | 0.5 |
| ARCATGCA / TGCATGYT [PF14_0633 Secondary motif 1] | > 0.45 |

The molecules below were run against T2, PF14_0533 D1 (PF3D7_1456000, AP2 domain transcription factor, putative) (Plasmodium falciparum) (UniProt Q8IKR9) (assay: not given). Conditions: PBM; highest protein concentration obtained; buffer not given; scale: PBM E-score of the seed 8-mer.
T2 sequence: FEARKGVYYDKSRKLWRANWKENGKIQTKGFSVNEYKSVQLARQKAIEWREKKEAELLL

| Molecule | binding signal |
| --- | --- |
| CACACACAC (double strand) [PF14_0533 primary motif] | 0.5 |
| GTGTGCA (double strand) [PF14_0533 Secondary motif 1] | > 0.45 |

These molecules were tested against T3, PFL1085w D1ext (PF3D7_1222600, AP2 domain transcription factor AP2-G) (Plasmodium falciparum) (UniProt Q8I5I9) (assay: not given). Conditions: PBM; highest protein concentration obtained; buffer not given; scale: PBM E-score of the seed 8-mer.
T3 sequence: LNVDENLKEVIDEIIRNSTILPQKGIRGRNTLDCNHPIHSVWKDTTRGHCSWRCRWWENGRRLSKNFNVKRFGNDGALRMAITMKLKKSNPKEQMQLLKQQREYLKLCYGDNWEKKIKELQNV

| Molecule | binding signal |
| --- | --- |
| GTACTACT (double strand) [PFL1085w Secondary motif 1] | > 0.45 |
| GTGGTC (double strand) [PFL1085w Secondary motif 2] | > 0.45 |
| GTGTAC (double strand) [PFL1085w primary motif] | 0.49 |

Each molecule was assayed against T4, PFL1900w DLD (PF3D7_1239200, AP2 domain transcription factor, putative) (Plasmodium falciparum) (UniProt Q8I531) (assay: not given). Conditions: PBM; highest protein concentration obtained; buffer not given; scale: PBM E-score of the seed 8-mer.
T4 sequence: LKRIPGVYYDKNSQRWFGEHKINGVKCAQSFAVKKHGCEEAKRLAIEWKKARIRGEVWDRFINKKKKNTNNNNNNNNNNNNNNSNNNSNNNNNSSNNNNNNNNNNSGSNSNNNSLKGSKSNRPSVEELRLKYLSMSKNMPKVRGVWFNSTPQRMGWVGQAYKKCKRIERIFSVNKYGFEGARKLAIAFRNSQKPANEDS

| Molecule | binding signal |
| --- | --- |
| ACCGCGGT (double strand) [PFL1900w_DLD Secondary motif 2] | > 0.45 |
| ACRACATC / GATGTYGT [PFL1900w_DLD Secondary motif 1] | > 0.45 |
| TCTACAA (double strand) [PFL1900w_DLD primary motif] | 0.468 |

The molecules below were run against T5, PF10_0075 D1ext (PF3D7_1007700, AP2 domain transcription factor AP2-I) (Plasmodium falciparum) (UniProt Q8IJW6) (assay: not given). Conditions: PBM; highest protein concentration obtained; buffer not given; scale: PBM E-score of the seed 8-mer.
T5 sequence: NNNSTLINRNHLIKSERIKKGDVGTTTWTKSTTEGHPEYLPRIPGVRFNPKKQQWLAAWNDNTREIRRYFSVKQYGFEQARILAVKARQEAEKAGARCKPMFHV

| Molecule | binding signal |
| --- | --- |
| GGTTCCGA (double strand) [PF10_0075_D1 Secondary motif 5] | > 0.45 |
| TCGGKGCA / TGCMCCGA [PF10_0075_D1 Secondary motif 1] | > 0.45 |
| GTCGCGAC (double strand) [PF10_0075_D1 Secondary motif 3] | > 0.45 |
| GGGTCGACCC (double strand) [PF10_0075_D1 primary motif] | 0.495 |
| RGGTCGTTA / TAACGACCY [PF10_0075_D1 Secondary motif 2] | > 0.45 |

These molecules were tested against T6, PFL1075w D1 (PF3D7_1222400, AP2 domain transcription factor) (Plasmodium falciparum) (UniProt Q8I5J1) (assay: not given). Conditions: PBM; highest protein concentration obtained; buffer not given; scale: PBM E-score of the seed 8-mer.
T6 sequence: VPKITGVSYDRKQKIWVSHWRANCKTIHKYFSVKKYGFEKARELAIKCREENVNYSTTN

| Molecule | binding signal |
| --- | --- |
| TATATAGC (double strand) [PFL1075w Secondary motif 1] | > 0.45 |
| CTGTATAA (double strand) [PFL1075w Secondary motif 2] | > 0.45 |
| TATATATA (double strand) [PFL1075w primary motif] | 0.499 |

The molecules below were run against T7, PFF0670w D2ext (PF3D7_0613800, AP2 domain transcription factor, putative) (Plasmodium falciparum) (UniProt C6KSY0) (assay: not given). Conditions: PBM; highest protein concentration obtained; buffer not given; scale: PBM E-score of the seed 8-mer.
T7 sequence: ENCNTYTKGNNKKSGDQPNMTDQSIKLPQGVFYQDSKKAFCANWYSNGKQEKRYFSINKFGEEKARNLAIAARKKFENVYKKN

| Molecule | binding signal |
| --- | --- |
| AAGATCTT (double strand) [PFF0670w_D2 Secondary motif 2] | > 0.45 |
| ACCTAGGT (double strand) [PFF0670w_D2 Secondary motif 1] | > 0.45 |
| CTCTAGAG (double strand) [PFF0670w_D2 primary motif] | 0.495 |

The molecules below were run against T8, PFD0985w D2ext (ApiAP2) (Plasmodium falciparum) (UniProt Q8I1N6) (assay: not given). Conditions: PBM; highest protein concentration obtained; buffer not given; scale: PBM E-score of the seed 8-mer.
T8 sequence: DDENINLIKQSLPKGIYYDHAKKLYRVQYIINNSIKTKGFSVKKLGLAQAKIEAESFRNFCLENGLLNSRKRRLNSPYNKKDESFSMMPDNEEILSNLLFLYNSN

| Molecule | binding signal |
| --- | --- |
| GTGTTACAC (double strand) [PFD0985w_D2 primary motif] | 0.496 |
| GTGYNYACAC / GTGTRNRCAC [PFD0985w_D2 Secondary motif 2] | > 0.45 |
| CCACACAC (double strand) [PFD0985w_D2 Secondary motif 3] | > 0.45 |
| WATTWCAC (double strand) [PFD0985w_D2 Secondary motif 1] | > 0.45 |

These molecules were tested against T9, PF10_0075 D3ext (PF3D7_1007700, AP2 domain transcription factor AP2-I) (Plasmodium falciparum) (UniProt Q8IJW6) (assay: not given). Conditions: PBM; highest protein concentration obtained; buffer not given; scale: PBM E-score of the seed 8-mer.
T9 sequence: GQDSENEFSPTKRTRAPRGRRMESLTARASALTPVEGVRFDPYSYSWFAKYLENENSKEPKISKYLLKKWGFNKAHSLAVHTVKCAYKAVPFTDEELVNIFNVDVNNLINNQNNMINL

| Molecule | binding signal |
| --- | --- |
| ATATGCAC (double strand) [PF10_0075_D3 Secondary motif 3] | > 0.45 |
| GTGCAA (double strand) [PF10_0075_D3 Secondary motif 4] | > 0.45 |
| GTGCGCAC (double strand) [PF10_0075_D3 Secondary motif 1] | > 0.45 |
| GTGCACTA (double strand) [PF10_0075_D3 primary motif] | 0.496 |
| GTGCGKTA / TAMCGCAC [PF10_0075_D3 Secondary motif 2] | > 0.45 |

These molecules were tested against T10, PF13_0097 D1 (PF3D7_1317200, AP2 domain transcription factor AP2-FG, putative) (Plasmodium falciparum) (UniProt Q8IEE4) (assay: not given). Conditions: PBM; highest protein concentration obtained; buffer not given; scale: PBM E-score of the seed 8-mer.
T10 sequence: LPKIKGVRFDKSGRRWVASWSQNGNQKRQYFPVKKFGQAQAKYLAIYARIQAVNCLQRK

| Molecule | binding signal |
| --- | --- |
| TGCTCAA (double strand) [PF13_0097 Secondary motif 1] | > 0.45 |
| TCACYCAR / YTGRGTGA [PF13_0097 Secondary motif 3] | > 0.45 |
| TGATCM / KGATCA [PF13_0097 Secondary motif 2] | > 0.45 |
| AGCTCAGA (double strand) [PF13_0097 primary motif] | 0.489 |

These molecules were tested against T11, PF13_0267 D1 (PF3D7_1350900, AP2 domain transcription factor AP2-O4, putative) (Plasmodium falciparum) (UniProt A0A5K1K8Z4) (assay: not given). Conditions: PBM; highest protein concentration obtained; buffer not given; scale: PBM E-score of the seed 8-mer.
T11 sequence: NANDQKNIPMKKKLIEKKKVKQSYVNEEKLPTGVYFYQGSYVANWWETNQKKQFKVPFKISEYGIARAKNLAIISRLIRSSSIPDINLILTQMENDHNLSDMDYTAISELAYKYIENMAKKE

| Molecule | binding signal |
| --- | --- |
| ACCTAA (double strand) [PF13_0267 Secondary motif 2] | > 0.45 |
| CTANTAG (double strand) [PF13_0267 Secondary motif 1] | > 0.45 |
| ATTCTAGAA (double strand) [PF13_0267 primary motif] | 0.479 |

The molecules below were run against T12, PFF0200c D1 (PF3D7_0604100, AP2 domain transcription factor) (Plasmodium falciparum) (UniProt C6KSN9) (assay: not given). Conditions: PBM; highest protein concentration obtained; buffer not given; scale: PBM E-score of the seed 8-mer.
T12 sequence: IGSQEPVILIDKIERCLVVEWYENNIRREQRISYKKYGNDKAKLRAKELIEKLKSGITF

| Molecule | binding signal |
| --- | --- |
| MCGCACCC / GGGTGCGK [PFF0200c_D1 Secondary motif 2] | > 0.45 |
| CMTGCACCMC / GKGGTGCAKG [PFF0200c_D1 Secondary motif 1] | > 0.45 |
| WGTGCACTRNA / TNYAGTGCACW [PFF0200c_D1 Secondary motif 3] | > 0.45 |

Each molecule was assayed against T13, PFD0985w D2ext (ApiAP2) (Plasmodium falciparum, UniProt Q8I1N6 3258-3362) (assay: EMSA; 5 mM MgCl2 with 10 mM EDTA; LightShift buffer, 2.5% glycerol, 50 mM KCl, 0.05% NP-40, 50 ng/uL poly(dI-dC); room temperature, 20 min). Conditions: tags: N-terminal GST (pGEX-4T1), kept; label: 5' biotin.
T13 sequence: T8 sequence

| Molecule | binding result |
| --- | --- |
| B1 | no binding |
| B2 | binds |
| B3 | binds |

Each molecule was assayed against PF10_0075 D3ext (PF3D7_1007700, AP2 domain transcription factor AP2-I) (Plasmodium falciparum, UniProt Q8IJW6 910-1027) in the same assay as above. Conditions: tags: N-terminal GST (pGEX-4T1), kept; label: 5' biotin.

| Molecule | binding result |
| --- | --- |
| B4 | binds |
| B5 | binds |
| B6 | binds |
